Assay results as given in patent US20170233449A1 (Teva, published 2017).
Where a chain is given by its changes, count along the chain named.

Assays:
[1] = biological target: T1, cynomolgus monkey CD38 extracellular domain (ECD), tagged (cynomolgus monkey, Avitag biotinylated (in the ELISAs)); experiment: ELISA, biotinylated CD38 ED on streptavidin plates, FAb lysate, anti-V5-HRP
T1 construct: also called cynomolgus monkey CD38 ED
T1 chain: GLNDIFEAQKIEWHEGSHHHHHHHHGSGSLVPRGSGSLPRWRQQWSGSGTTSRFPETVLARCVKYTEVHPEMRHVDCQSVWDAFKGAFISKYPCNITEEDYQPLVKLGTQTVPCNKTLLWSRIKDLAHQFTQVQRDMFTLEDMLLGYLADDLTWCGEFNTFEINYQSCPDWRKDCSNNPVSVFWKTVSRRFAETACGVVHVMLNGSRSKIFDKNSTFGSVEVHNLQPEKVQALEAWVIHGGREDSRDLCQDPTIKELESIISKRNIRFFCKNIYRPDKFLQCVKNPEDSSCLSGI
Description: (§1) Plates were then washed and individual FAb samples (prepared as described above) were added to individual wells on the ELISA plates. FAbs were allowed to bind the captured CD38 ED for an hour at room temperature and then washed three times with PBS-T (1× PBS supplemented with 0.1% Tween®20). FAbs that bound to CD38 ED were detected by incubation for 30 minutes at room temperature with an anti-V5-HRP conjugated antibody (Invitrogen, Carlsbad, Calif.) to detect the V5 tag fused to the C-terminus of the FAb heavy chain. Plates were washed to remove unbound antibody and the assay signal developed by incubation with 50 μL 3,3′,5,5′-Tetramethylbenzidine (Sigma-Adrich, St. Louis, Mo.) and quenching with 50 μL 1 M HCl. Assay signals were read at A450 nm using a microplate reader (BMG Labtech). Results were expressed as the raw A450 nm value, where any signal 2-fold greater than the average assay background was defined as ‘positive’.
(§2) In later assays FAb cross-reactivity with cynomolgus monkey CD38 ED was assessed by coating biotinylated cynomolgus monkey CD38 ED onto streptavidin coated ELISA plates and proceeding as described above.

[2] = biological target: T2, human CD38 extracellular domain (ECD), tagged (human, Avitag biotinylated (in the ELISAs)); experiment: as above
T2 construct: also called human CD38 ED; biotinylated human CD38
Description: as §1, §2

[3] = biological target: T1, cynomolgus monkey CD38 extracellular …; experiment: SPR (Biacore T200), antibody captured on Protein A, CD38 ED as analyte, 1:1 Langmuir fit;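 further: CM5 sensor chip in HBS-P buffer at pH 7.4, antibody loaded at 5 µg/mL, responses corrected against a blank reference flow cell before fitting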
Description: (§3) Briefly, using a Biacore T200, Protein A was immobilized onto Flow Cell (FC) 1 (FC1) and FC2 (or alternatively FC3 and FC4) of a CM5 research grade sensor chip using amine coupling, giving approximately 2000 RU. FC1 was used as a blank throughout the experiments. The experiments were run in HBS-P buffer (0.01 M HEPES pH 7.4, 0.15 M NaCl, 0.005% v/v Surfactant P20). At a flow rate of 20 μl/min, 20 μl of 5 μg/mL of antibody was passed over FC2. […] Regeneration of the surface was performed using 10mM Glycine, pH 1.0. The FC1 sensorgram data was subtracted from FCS and the curves were fitted using a 1:1 Langmuir equation to generate the kd, kₐ and KD values.

[4] = biological target: T2, human CD38 extracellular domain (ECD), …; experiment: as above
Description: as §3

human CD38 on cells = human CD38 on cells (human, UniProt P28907 1-300); experiment: flow cytometry, hybridoma supernatant on RPMI-8226 cells; background MFI average 153
Description: Viable RPMI-8226 cells (2×10⁵, as judged by trypan blue exclusion) were incubated with 100 μL of rat hybridoma supernatant for 20 minutes on ice in the dark. Cells were washed twice with FACS buffer (1× PBS plus 1% FCS) before incubation for 20 minutes in 100 μl of FACS buffer containing anti-rat IgG-FITC conjugate (Sigma-Aldrich). After washing cells in FACS buffer, they were resuspended in FACS buffer and analysed for antibody-binding by flow cytometry on a FACS Canto (BD Biosciences, San Diego, Calif.) using EV, side scatter and FL-1 gating. Results were expressed as mean fluorescent intensity (MFI).

[5] = biological target: T1, cynomolgus monkey CD38 extracellular …; experiment: ELISA, hybridoma supernatant coated, biotinylated CD38 ED in solution
Description: (§4) Following incubation for 1 hour at room temperature, plates were washed as described previously. To one well of each rat antibody duplicate well was added 0.1 μg of biotinylated human CD38 in a final volume of 100 μL 1× PBS. To the second well of each rat antibody duplicate well was added 0.1 μg of biotinylated cynomolgus monkey CD38 ED in a final volume of 100 μL 1× PBS. Plate wells were washed as described previously prior to detection of bound biotinylated CD38 ED using a Streptavidin-HRP conjugate (BD Biosciences, San Diego, Calif.). Plates were washed as above to remove unbound Streptavidin-HRP conjugate and the assay signal developed by incubation with 50 μL 3,3′,5,5′-Tetramethylbenzidine (Sigma-Aldrich) and quenching with 50 μL 1 M HCl. Assay signals were read at A₄₅₀ nm using a microplate reader (BMG Labtech, Cary, N.C.).

[6] = biological target: T2, human CD38 extracellular domain (ECD), …; experiment: as above
Description: as §4

B1: X910/12 FAb (Fab, V domains shown)
VH: EVQLVQSGAEVKKSGASVKVSCKASGYTFTDYYIHWVRQAPGQGLEWMGWINPNNGGVTFAQKFQGRVTMTRDTSISTAYMDLSSLRSDDTAVYFCARDIRMSGWLAPFDYWGQGTLVTVSS
VL: QAVLTQPASLSASPGESARLTCTLPSDINVRYYNIYWYQQKPGSPPRYLLYYYSDSHKDQGSGVPSRFSGSKDTSANTGILLISGLQSEDEADYYCMIWASNGSGVLGGGTQLTVL
notes: human Fab from E. coli lysate, V5 tag at the C-terminus of the Fab heavy chain
B1: binds [1]; binds [2].

B2: X355/04 FAb (Fab, V domains shown)
VH: QVQLVQSGAEVKKPGSSVKVSCKASGGTFSSYAISWVRQAPGQGLEWMGGIIPIFGTANYAQKFQGRVTITADESTSTAYMELSSLRSEDTAVYYCARDSSSWYFTYGYFQHWGQGTLVTVSS
VL: DVVMTQSPLSLPVTPGEPASISCRSSQSLLNSNGYNYLEWYVQKPGQSPQLLIFLGSNRASGVPDRFSGSGSGTDFTLKINRVEAEDVGVYYCMQALQSPLTFGGGTKVEIK
notes: as for B1
B2: binds [1]; binds [2].

B3: R5D1 IgG1 (antibody, V domains shown)
VH: EVQLQQSGPEVGRPGSSVKISCKASGYTFTDYIMHWVKQSPGQGLEWIGWIDPEYGRTDYAEKFKKKATLTADTSSSTAYIQLSSLASEDTATYFCARSAHTTGFGFAYWGQGTLVTVSS
VL: DIQMTQSPASLSASLGETVTIECRASEDIYSNLAWYQQKPGNSPQLLIYDANSLADGVPSRFSASGSGTQFSLKINSLRSEDVASYFCQQYNNYPYTFGAGTKLELKR
notes: chimeric rat-human IgG1
In the case of B3, the Kd [3] is reported as 1 nM, the koff [3] is reported as 0.0011 s⁻¹ and the kon [3] is reported as 1.11e+06 M⁻¹ s⁻¹. It also gave a Kd [4] of 1 nM, a koff [4] of 0.000239 s⁻¹ and a kon [4] of 243000 M⁻¹ s⁻¹.

B4: R5E8 IgG1 (antibody, V domains shown)
VH: EVQLQQSGPEVGRPGSSVKISCKASGYIFTDYIMHWVKQSPGQGLEWIGWIDPEYGSTDYAEKFKKKATLTADTSSSTAYIQLSSLTSEDTATYFCARVAIITTVASGGFAYWGQGTLVTVSS
VL: DIVMTQGALPNPVPSGESASITCQSSESLLHSNGKTYLNWYLQRPGQSPQLLIYWMSTRAAGVSDRFSGSGSGTDFTLTISGVEAEDVGVYYCQQFLEYPPTFGSGTKLEIKR
notes: chimeric rat-human IgG1
With B4 the Kd [3] was 4.2 nM, the koff [3] was 0.0019 s⁻¹ and the kon [3] was 452000 M⁻¹ s⁻¹. The Kd [4] was 2.9 nM, the koff [4] was 0.00118 s⁻¹ and the kon [4] was 405000 M⁻¹ s⁻¹.

B5: X913/15 FAb (Fab, V domains shown)
VH: QVQLVESGGGVVQGGGSLRLSCAASGFTVRSNYMSWVRQAPGKGLEWVSAISGSGDSTYYADSVKGRFTISRDNSKNTLYLQMNSLRAEDTAVYYCAKVAVTTGWYFDLWGRGTLVTVSS
VL: QAVLTQPASLSASPGESARLTCTLPSDINVRYHNIYWYQEKPGSPPRYLLYYYSDSSKGQGSGVPSRFSGSKDVSTNTGILVISGLQSEDEAEYYCMTWSSNGSGVFGGGTQLTVL
notes: as for B1
B5: binds [1]; binds [2].

B6: R5D1 (rat hybridoma antibody) (antibody, V domains shown)
VH: B3 VH
VL: DIQMTQSPASLSASLGETVTIECRASEDIYSNLAWYQQKPGNSPQLLIYDANSLADGVPSRFSASGSGTQFSLKINSLRSEDVASYFCQQYNNYPYTFGAGTKLELK
notes: tested as rat hybridoma supernatant; kappa light chain
Binder B6 has an MFI (human CD38 on cells) of 12200 MFI.

B7: R5E8 (rat hybridoma antibody) (antibody, V domains shown)
VH: B4 VH
VL: DIVMTQGALPNPVPSGESASITCQSSESLLHSNGKTYLNWYLQRPGQSPQLLIYWMSTRAAGVSDRFSGSGSGTDFTLTISGVEAEDVGVYYCQQFLEYPPTFGSGTKLEIK
notes: as for B6
B7 was tested, and the MFI (human CD38 on cells) was 10600 MFI.

B8: R7F11 (rat hybridoma antibody) (antibody, V domains shown)
VH: QIQLVQSGPGLKKPGESVKISCKASGYTFTDYSMHWVKQAPGKGLQWMGWINTYSGKPTYAADFKGRFVFSLEASASTANLQISNLKNEDTATYFCARCYDGTFYYDPMDAWGQGTSVTVSS
VL: NIVLTQSPATLSVTPGESVSLSCRASQSIGTSIHWYQQKSNESPRLLIRYASQSISGIPSRFSGSGSGTDFTLSINRVESEDFSIYYCQQSYSSLVTFGSGTKLEIK
notes: as for B6
In the case of B8, the binding result [5] is reported as “binds”, the binding result [6] is reported as “binds” and the MFI (human CD38 on cells) is reported as 11900 MFI.

B9: X355/01 FAb (Fab, V domains shown)
VH: QVQLVQSGAEVKKPGSSVKVSCKASGGNFISYSISWVRQAPGKRLEWMGWIIPIFGTTTYVQKFQGRVTITADESTSTAYMELSSLRSEDTAVYYCARVKYGSGSYYPNNWFDPWGQGTLVTVSS
VL: EIVLTQSPATLSASPGERATLSCRASQSISSNLAWYQQKPGQAPRLLIQDSSTRATGIPARFSGSGSGTEFTLTISSLQSEDFAVYYCQQSDNWPLTFGGGTKVDIK
notes: as for B1
B9: binds [1]; binds [2].

B10: R7H11 (rat hybridoma antibody) (antibody, V domains shown)
VH: QVQLKESGPGLLLSSETLSLTCTVSGFSLTSYEVSWVRQLPGRGLEWMGRVWIGGDTDYNSDLKSRLSISRDIAKSQVFLKMSNLKTEDTGTYYCARAYGFNYWSFDFWGPGTMVTVSS
VL: GQFTLTQPKSVSGSLRSTITIPCERSSGDIGDNYVTWYQQHLGRPPLNVIYADDQRPSEVSDRFSGSIDSSSNSASLTITNLQMDDEADYFCQSYDSNTDIIFGGGTKVTVL
notes: tested as rat hybridoma supernatant; lambda light chain
B10 gave an MFI (human CD38 on cells) of 680 MFI.

B11: R10A2 (rat hybridoma antibody) (antibody, V domains shown)
VH: EVQLQQSGPEVGRPGSSVKISCKASGYTFTDSVMNWVKQSPGQGLEWIGWIDPEYGRTDVAEKFKKKATLTADSSSSTAYIYLSGLTSEDTATYFCARTKYNSGYGFPYWGQGSLVTVSS
VL: DIVMTQSPTSISISVGERVTMNCKASQNVDSDVDWYQQKTGQSPKLLIYKASNRYTGVPDRFTGSGSGTDFTFTISNMQAEDLAVYYCMQSNTHPRTFGGGTKLELK
notes: as for B6
For B11, the MFI (human CD38 on cells) was 4470 MFI.

B12: R10B10 (rat hybridoma antibody) (antibody, V domains shown)
VH: QVQLKESGPGLVQPSETLSLTCTVSGFSLTSYGVNWVRQPPGKGLEWMGRIWNDGSIDYNSALKSRLSISRDTSKGQVFLKMNSLQTEDTAIYFCARGPYNNYWYFDFWGPGTMVTVLS
VL: B10 VL with T36S, L47I, T99I, V109L
notes: as for B10
B12 showed an MFI (human CD38 on cells) of 858 MFI.

B13: X355/02 IgG1 (antibody, V domains shown)
VH: QLQLQESGPGLVKPSETLSLTCTVSGGSISSSSYYWSWIRQHPGKGLEWIGYIYYSGSTNYNPSLKSRVTISVDTLKNQISLRLTSVTAADTAVYYCARVGGAGGWPMDVWGQGTTVTVSS
VL: QAVLTQPASLSASPGESARLTCTLPSDINVRYYNIYWYQQKPGSPPRYLLYYYSDSHKGQGSGVPSRFSGSKDVSTNSGILLISGLQSEDEADYYCMTWSSNGSGVFGGGTQLTVLG
notes: human IgG1 from phage-derived Fab
For B13, the Kd [3] was 27.4 nM, the koff [3] was 0.00228 s⁻¹ and the kon [3] was 83400 M⁻¹ s⁻¹. For the same binder, the Kd [4] was 7.6 nM, the koff [4] was 0.000892 s⁻¹ and the kon [4] was 118000 M⁻¹ s⁻¹.

B14: X355/07 IgG1 (antibody, V domains shown)
VH: QVQLQESGPGLVKPSETLSLTCAVYGGSFSGYYWSWIRQPPGKGLEWIGSIYHSGSTYYNPSLKSRVTISVDTSKNQFSLKLSSVTAADTAVYYCARDLYYYYGMDVWGQGTTVTVSS
VL: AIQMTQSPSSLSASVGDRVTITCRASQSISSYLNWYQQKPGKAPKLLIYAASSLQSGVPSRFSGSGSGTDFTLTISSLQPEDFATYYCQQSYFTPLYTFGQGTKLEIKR
notes: as for B13
B14 was tested, and the Kd [3] was 12.2 nM, the koff [3] was 0.0138 s⁻¹ and the kon [3] was 1.13e+06 M⁻¹ s⁻¹. For the same binder, the Kd [4] was 11.4 nM, the koff [4] was 0.00132 s⁻¹ and the kon [4] was 115000 M⁻¹ s⁻¹.

B15: R10A2 IgG1 (antibody, V domains shown)
VH: B11 VH
VL: DIVMTQSPTSISISVGERVTMNCKASQNVDSDVDWYQQKTGQSPKLLIYKASNRYTGVPDRFTGSGSGTDFTFTISNMQAEDLAVYYCMQSNTHPRTFGGGTKLELKR
notes: chimeric rat-human IgG1
B15 showed a Kd [3] of 2.2 nM, a koff [3] of 0.00193 s⁻¹ and a kon [3] of 898000 M⁻¹ s⁻¹. It also gave a Kd [4] of 0.7 nM, a koff [4] of 0.000479 s⁻¹ and a kon [4] of 660000 M⁻¹ s⁻¹.
